Among the data in US20240124586A1 (WUXI BIOLOGICS IRELAND, published 2024) are IC50 and EC50 values, retold here.

In general, IC50 refers to the concentration at which inhibition is half-maximal. Low values mean inhibition by little substance, high ones a need for much substance. For orientation: EC50 means the concentration needed to bring the measured effect to its halfway point. Low readings indicate greater potency, high ones weaker potency.

Test [1] addresses T1, biotinylated human CTLA-4.ECD.hFc (W316-hPro1.ECD.hFc.Biotin) (human, UniProt P16410 36-161, biotin-labelled (site not stated)).
T1 construct: extracellular domain; In-house protein; also called hCTLA-4.ECD.hFc-Biotin; human CTLA-4 protein
The test can be described thus: competitive FACS, biotinylated CTLA-4.ECD.hFc on human CD80 CHO-K1 cells (competitor: CD80). How it is done: Competitive FACS was used to test whether the antibodies could block human or cynomolgus CTLA-4 binding to hCD80 on cell surface. […] Then the mixtures of antibody and CTLA-4 were added to the cells and incubated for 1 hour at 4° C. The cells were washed two times with 200 μl FACS washing buffer (DPBS containing 1% BSA). Streptavidin PE (BD Pharmingen-554061) 1 to 600 diluted in FACS buffer was added to the cells and incubated at 4° C. for 1 hour. Additional washing steps were performed two times with 200 μL FACS washing buffer followed by centrifugation at 1500 rpm for 4 minutes at 4° C. Finally, the cells were resuspended in 100 μL FACS washing buffer and fluorescence values were measured by flow cytometry and analyzed by FlowJo.

For test [2], the target named is T2, human PD-1 ECD mouse Fc fusion (W305-hPro1.ECD.mFc) (human, UniProt Q15116 25-170).
T2 construct: extracellular domain; In-house protein; also called hPD-1-ECD; human PD-1 coated on the plate
T2 sequence (Q15116 25-170): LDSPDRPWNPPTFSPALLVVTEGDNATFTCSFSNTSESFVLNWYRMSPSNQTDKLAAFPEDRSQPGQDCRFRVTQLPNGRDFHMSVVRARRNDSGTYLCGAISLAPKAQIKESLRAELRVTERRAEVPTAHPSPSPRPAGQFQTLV
Briefly: dual binding ELISA, PD-1 ECD.mFc coated, detection with biotinylated CTLA-4 ECD.hFc; first antibody named, first value; PD-1 coated, biotinylated CTLA-4 detection. How it is done: In order to test whether the bispecific antibodies could bind to both hPD-1 and hCTLA-4, an ELISA assay was developed as below. A 96-well ELISA plate (Nunc MaxiSorp, ThermoFisher) was coated overnight at 4° C. with 0.5 μg/ml antigen-1 (hPD-1-ECD, W305-hPro1.ECD.mFc) in carbonate-bicarbonate buffer. After a 1 hour blocking step with 2% (w/v) bovine serum albumin (Pierce) dissolved in PBS, serial dilutions of the different PD-1×CTLA-4 bispecific antibodies in PBS containing 2% BSA PBS were incubated on the plates for 1 hour at room temperature. Following the incubation, plates were washed three times with 300 μL per well of PBS containing 0.5% (v/v) Tween 20. […] After washing the plates three times, Streptavidin-HRP (Lifetechnologies, #SNN1004) (1:20000 diluted) was added and incubated on the plates for 1 hour at room temperature. After washing six times with […] per well of PBS containing 0.5% (v/v) Tween 20, 100 μL tetramethylbenzidine (TMB) substrate was added for the detection per well. The reaction was stopped after approximately 5 minutes through the addition of […] per well of 2 M HCl. The absorbance of the wells was measured at 450 nm with a multiwall plate reader (SpectraMax® M5e).

For test [3], the target named is T3, human CD3 on CD3+ Jurkat cells (human, UniProt P07766 23-207; P09693 23-182; P04234 22-171).
T3 construct: whole, on cells; also called CD3 positive Jurkat cells
T3 sequence (P07766 23-207, chain 1 of 3): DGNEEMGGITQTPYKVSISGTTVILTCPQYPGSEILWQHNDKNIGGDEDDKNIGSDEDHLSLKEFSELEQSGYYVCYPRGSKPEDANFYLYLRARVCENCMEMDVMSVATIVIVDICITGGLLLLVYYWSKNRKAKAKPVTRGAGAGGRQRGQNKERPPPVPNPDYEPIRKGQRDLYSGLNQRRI
T3 sequence (P09693 23-182, chain 2 of 3): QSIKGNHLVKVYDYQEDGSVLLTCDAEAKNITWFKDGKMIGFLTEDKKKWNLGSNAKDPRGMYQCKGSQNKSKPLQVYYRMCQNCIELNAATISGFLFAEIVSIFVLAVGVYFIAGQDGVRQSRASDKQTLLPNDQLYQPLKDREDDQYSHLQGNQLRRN
T3 sequence (P04234 22-171, chain 3 of 3): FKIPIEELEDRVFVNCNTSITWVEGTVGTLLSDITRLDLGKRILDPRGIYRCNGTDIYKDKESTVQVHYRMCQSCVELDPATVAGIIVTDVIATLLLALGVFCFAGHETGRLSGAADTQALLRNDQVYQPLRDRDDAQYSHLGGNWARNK
Briefly: flow cytometry on Jurkat cells. On the technique in general: A flow cytometer gives signals particle by particle.

T1 sequence (P16410 36-161): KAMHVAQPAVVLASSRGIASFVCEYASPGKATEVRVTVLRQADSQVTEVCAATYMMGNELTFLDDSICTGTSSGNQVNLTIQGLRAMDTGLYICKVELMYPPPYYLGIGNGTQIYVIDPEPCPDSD

B1: W3248-U6T5.G25-1.uIgG4.SP, bispecific anti-PD-1 x CTLA-4 (bispecific antibody)
heavy: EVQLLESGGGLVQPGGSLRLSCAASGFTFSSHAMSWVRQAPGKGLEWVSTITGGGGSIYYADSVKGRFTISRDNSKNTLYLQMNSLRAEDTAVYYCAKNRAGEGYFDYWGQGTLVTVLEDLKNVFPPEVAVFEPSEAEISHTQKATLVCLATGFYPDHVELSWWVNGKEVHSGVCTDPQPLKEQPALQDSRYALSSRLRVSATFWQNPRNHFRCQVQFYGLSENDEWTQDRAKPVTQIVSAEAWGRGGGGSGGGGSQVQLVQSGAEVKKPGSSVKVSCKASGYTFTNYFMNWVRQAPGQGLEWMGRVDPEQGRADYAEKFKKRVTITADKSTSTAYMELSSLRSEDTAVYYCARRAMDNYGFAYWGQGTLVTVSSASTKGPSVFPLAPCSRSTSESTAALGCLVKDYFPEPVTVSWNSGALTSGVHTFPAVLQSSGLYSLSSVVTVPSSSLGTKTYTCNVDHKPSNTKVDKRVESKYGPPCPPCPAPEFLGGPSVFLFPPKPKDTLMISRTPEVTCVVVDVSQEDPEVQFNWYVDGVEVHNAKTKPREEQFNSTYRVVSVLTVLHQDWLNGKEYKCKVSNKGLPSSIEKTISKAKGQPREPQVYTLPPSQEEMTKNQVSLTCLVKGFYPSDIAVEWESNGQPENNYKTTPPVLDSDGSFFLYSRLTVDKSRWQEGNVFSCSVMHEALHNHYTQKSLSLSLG
light 1: SYELTQPLSVSVALGQTARITCGGDNIGNKDVHWYQQKPGQAPVLVIYRDSNRPSGIPEGFSGSNSGNTATLTISRAQAGDEADYYCQVWDSIWVFGGGTKLTVLPDIQNPDPAVYQLRDSKSSDKSVCLFTDFDSQTQVSQSKDSDVYITDKCVLDMRSMDFKSNSAVAWSQKSDFACANAFQNSIIPEDTFFPSPESS
light 2: EIVLTQSPDFQSVTPKEKVTITCSANSALSYMYWYQQKPDQSPKLWVHGTSNLASGVPSRFSGSGSGTDFTLTINSLEAEDAATYYCHHWSNTQWTFGGGTKVEIKRTVAAPSVFIFPPSDEQLKSGTASVVCLLNNFYPREAKVQWKVDNALQSGNSQESVTEQDSKDSTYSLSSTLTLSKADYEKHKVYACEVTHQGLSSPVTKSFNRGEC
notes: IgG4 (S228P); also called WBP3248-U6T5.G25-1-uIgG4.SP; U6T5.G25.IgG4
In test [1], B1 came in with an IC50 of 0.758 nM.

B2: W3248-U6T1.G25R-1.uIgG4.SP, bispecific anti-PD-1 x CTLA-4 (bispecific antibody)
heavy: EVQLLESGGGLVQPGGSLRLSCAASGFTFSSHAMSWVRQAPGKGLEWVSTITGGGGSIYYADSVKGRFTISRDNSKNTLYLQMNSLRAEDTAVYYCAKNRAGEGYFDYWGQGTLVTVSSASTKGPSVFPLAPCSRSTSESTAALGCLVKDYFPEPVTVSWNSGALTSGVHTFPAVLQSSGLYSLSSVVTVPSSSLGTKTYTCNVDHKPSNTKVDKRVGGGGSGGGGSQVQLVESGGGVVQPGRSLRLSCAASGFTFSSYTMHWVRQAPGKGLEWVTFISYDGNNKYYADSVKGRFTISRDNSKNTLYLQMNSLRAEDTAIYYCARTGWLGPFDYWGQGTLVTVLEDLKNVFPPEVAVFEPSEAEISHTQKATLVCLATGFYPDHVELSWWVNGKEVHSGVCTDPQPLKEQPALQDSRYALSSRLRVSATFWQNPRNHFRCQVQFYGLSENDEWTQDRAKPVTQIVSAEAWGRYGPPCPPCPAPEFLGGPSVFLFPPKPKDTLMISRTPEVTCVVVDVSQEDPEVQFNWYVDGVEVHNAKTKPREEQFNSTYRVVSVLTVLHQDWLNGKEYKCKVSNKGLPSSIEKTISKAKGQPREPQVYTLPPSQEEMTKNQVSLTCLVKGFYPSDIAVEWESNGQPENNYKTTPPVLDSDGSFFLYSRLTVDKSRWQEGNVFSCSVMHEALHNHYTQKSLSLSLG
light 1: SYELTQPLSVSVALGQTARITCGGDNIGNKDVHWYQQKPGQAPVLVIYRDSNRPSGIPEGFSGSNSGNTATLTISRAQAGDEADYYCQVWDSIWVFGGGTKLTVLGQPKAAPSVTLFPPSSEELQANKATLVCLISDFYPGAVTVAWKADSSPVKAGVETTTPSKQSNNKYAASSYLSLTPEQWKSHKSYSCQVTHEGSTVEKTVAPTECS
light 2: not shown
notes: IgG4 (S228P); also called U6T1.G25R.IgG4
As for B2, in test [2], the EC50 was 0.107 nM.

B3: W3438-T3U4.E17-1.uIgG4.SP, bispecific anti-CD3 x CD19 (bispecific antibody)
heavy 1: QVQLVQSGAEVKKPGSSVKVSCKASGFAFTDYYIHWVRQAPGQGLEWMGWISPGNVNTKYNENFKGRVTITADKSTSTAYMELSSLRSEDTAVYYCARDGYSLYYFDYWGQGTLVTVLEDLKNVFPPEVAVFEPSEAEISHTQKATLVCLATGFYPDHVELSWWVNGKEVHSGVCTDPQPLKEQPALQDSRYALSSRLRVSATFWQNPRNHFRCQVQFYGLSENDEWTQDRAKPVTQIVSAEAWGRYGPPCPPCPAPEFLGGPSVFLFPPKPKDTLMISRTPEVTCVVVDVSQEDPEVQFNWYVDGVEVHNAKTKPREEQFNSTYRVVSVLTVLHQDWLNGKEYKCKVSNKGLPSSIEKTISKAKGQPREPQVYTLPPCQEEMTKNQVSLWCLVKGFYPSDIAVEWESNGQPENNYKTTPPVLDSDGSFFLYSRLTVDKSRWQEGNVFSCSVMHEALHNHYTQKSLSLSLGK
light 1: DIVMTQSPDSLAVSLGERATINCKSSQSLLNSRTRKNYLAWYQQKPGQPPKLLIYWASTRQSGVPDRFSGSGSGTDFTLTISSLQAEDVAVYYCTQSHTLRTFGGGTKVEIKPDIQNPDPAVYQLRDSKSSDKSVCLFTDFDSQTQVSQSKDSDVYITDKCVLDMRSMDFKSNSAVAWSQKSDFACANAFQNSIIPEDTFFPSPESS
heavy 2: QMQLVQSGPEVKKPGTSVKVSCKASGYAFTSYNMYWVRQARGQRLEWIGYIDPYNGDTTYNQKFKGRVTITRDMSTSTAYMELSSLRSEDTAVYYCLTTAYAMDYWGQGTLVTVSSASTKGPSVFPLAPCSRSTSESTAALGCLVKDYFPEPVTVSWNSGALTSGVHTFPAVLQSSGLYSLSSVVTVPSSSLGTKTYTCNVDHKPSNTKVDKRVESKYGPPCPPCPAPEFLGGPSVFLFPPKPKDTLMISRTPEVTCVVVDVSQEDPEVQFNWYVDGVEVHNAKTKPREEQFNSTYRVVSVLTVLHQDWLNGKEYKCKVSNKGLPSSIEKTISKAKGQPREPQVCTLPPSQEEMTKNQVSLSCAVKGFYPSDIAVEWESNGQPENNYKTTPPVLDSDGSFFLVSRLTVDKSRWQEGNVFSCSVMHEALHNHYTQKSLSLSLGK
light 2: DIQLTQSPSFLSASVGDRVTITCSASSTVNYMHWYQQKPGKAPKLLIYSTSNLASGVPSRFSGSGSGTEFTLTISSLQPEDFATYYCHQWSSYPYTFGQGTKLEIKRTVAAPSVFIFPPSDEQLKSGTASVVCLLNNFYPREAKVQWKVDNALQSGNSQESVTEQDSKDSTYSLSSTLTLSKADYEKHKVYACEVTHQGLSSPVTKSFNRGEC
notes: also called E17-Design_2-QQQQ (IgG4); E17-IgG4; copies: 1 + 1 + 1 + 1
In test [3], B3 gave an EC50 of 47 nM.
